# Tested on: peptide library, one residue held at a place counted from the S/T acceptor
# Experiment: relative phosphorylation of the sub-library (ratio to the mean residue at this position); higher = residue favoured
# Method in brief: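 Relative sub-library phosphorylation is a ratio to the mean residue at the same position. Purified recombinant kinases were incubated under kinase-specific conditions with biotinylated degenerate peptide sub-libraries, each fixing one residue at one position around a central Ser/Thr, using 50 μM peptide and 50 μM ATP spiked with γ-32P-ATP for 90 min. Spots captured on streptavidin membranes were phosphorimaged and quantified by densitometry.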
# RPS6KB2, construct: Full length, human, sequence (Q9UBS0 whole entry, looked up): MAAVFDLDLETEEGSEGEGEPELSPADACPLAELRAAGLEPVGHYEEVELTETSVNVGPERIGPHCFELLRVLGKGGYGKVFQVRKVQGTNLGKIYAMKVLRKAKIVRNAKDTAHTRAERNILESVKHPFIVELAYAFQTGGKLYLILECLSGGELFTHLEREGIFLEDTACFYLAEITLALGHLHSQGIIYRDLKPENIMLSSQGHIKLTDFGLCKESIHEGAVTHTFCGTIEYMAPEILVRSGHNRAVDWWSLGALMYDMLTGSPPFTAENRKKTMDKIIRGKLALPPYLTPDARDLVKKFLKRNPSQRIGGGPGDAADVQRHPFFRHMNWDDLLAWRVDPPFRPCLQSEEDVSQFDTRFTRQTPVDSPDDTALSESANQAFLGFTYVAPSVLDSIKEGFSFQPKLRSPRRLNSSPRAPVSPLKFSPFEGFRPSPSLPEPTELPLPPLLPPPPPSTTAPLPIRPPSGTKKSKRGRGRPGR
substance,measurement,setting,value
"RPS6KB2, construct: Full length, human (from UniProt Q9UBS0)",relative phosphorylation,"A fixed, at +1",0.79
same,relative phosphorylation,"A fixed, at +2",1.22
same,relative phosphorylation,"A fixed, at +3",1.17
same,relative phosphorylation,"A fixed, at +4",1
same,relative phosphorylation,"A fixed, at -1",0.797
same,relative phosphorylation,"A fixed, at -2",0.703
same,relative phosphorylation,"A fixed, at -3",0.597
same,relative phosphorylation,"A fixed, at -4",0.963
same,relative phosphorylation,"A fixed, at -5",0.777
same,relative phosphorylation,"D fixed, at +1",0.72
same,relative phosphorylation,"D fixed, at +2",0.659
same,relative phosphorylation,"D fixed, at +3",0.823
same,relative phosphorylation,"D fixed, at +4",1.07
same,relative phosphorylation,"D fixed, at -1",1.08
same,relative phosphorylation,"D fixed, at -2",0.468
same,relative phosphorylation,"D fixed, at -3",0.415
same,relative phosphorylation,"D fixed, at -4",0.699
same,relative phosphorylation,"D fixed, at -5",0.634
same,relative phosphorylation,"E fixed, at +1",1.07
same,relative phosphorylation,"E fixed, at +2",0.594
same,relative phosphorylation,"E fixed, at +3",0.891
same,relative phosphorylation,"E fixed, at +4",0.933
same,relative phosphorylation,"E fixed, at -1",0.764
same,relative phosphorylation,"E fixed, at -2",0.467
same,relative phosphorylation,"E fixed, at -3",0.386
same,relative phosphorylation,"E fixed, at -4",0.709
same,relative phosphorylation,"E fixed, at -5",0.569
same,relative phosphorylation,"F fixed, at +1",1.32
same,relative phosphorylation,"F fixed, at +2",0.706
same,relative phosphorylation,"F fixed, at +3",0.912
same,relative phosphorylation,"F fixed, at +4",0.863
same,relative phosphorylation,"F fixed, at -1",0.822
same,relative phosphorylation,"F fixed, at -2",0.626
same,relative phosphorylation,"F fixed, at -3",0.459
same,relative phosphorylation,"F fixed, at -4",0.705
same,relative phosphorylation,"F fixed, at -5",0.611
same,relative phosphorylation,"G fixed, at +1",0.854
same,relative phosphorylation,"G fixed, at +2",1.27
same,relative phosphorylation,"G fixed, at +3",1.14
same,relative phosphorylation,"G fixed, at +4",1.2
same,relative phosphorylation,"G fixed, at -1",0.76
same,relative phosphorylation,"G fixed, at -2",0.701
same,relative phosphorylation,"G fixed, at -3",0.554
same,relative phosphorylation,"G fixed, at -4",1.07
same,relative phosphorylation,"G fixed, at -5",0.961
same,relative phosphorylation,"H fixed, at +1",0.971
same,relative phosphorylation,"H fixed, at +2",1.58
same,relative phosphorylation,"H fixed, at +3",1.18
same,relative phosphorylation,"H fixed, at +4",1.17
same,relative phosphorylation,"H fixed, at -1",1.01
same,relative phosphorylation,"H fixed, at -2",1.11
same,relative phosphorylation,"H fixed, at -3",0.903
same,relative phosphorylation,"H fixed, at -4",1.05
same,relative phosphorylation,"H fixed, at -5",1
same,relative phosphorylation,"I fixed, at +1",1.22
same,relative phosphorylation,"I fixed, at +2",0.745
same,relative phosphorylation,"I fixed, at +3",0.82
same,relative phosphorylation,"I fixed, at +4",0.733
same,relative phosphorylation,"I fixed, at -1",0.734
same,relative phosphorylation,"I fixed, at -2",0.552
same,relative phosphorylation,"I fixed, at -3",0.421
same,relative phosphorylation,"I fixed, at -4",0.737
same,relative phosphorylation,"I fixed, at -5",0.571
same,relative phosphorylation,"K fixed, at +1",0.989
same,relative phosphorylation,"K fixed, at +2",1.09
same,relative phosphorylation,"K fixed, at +3",1.08
same,relative phosphorylation,"K fixed, at +4",1.19
same,relative phosphorylation,"K fixed, at -1",1.63
same,relative phosphorylation,"K fixed, at -2",2.59
same,relative phosphorylation,"K fixed, at -3",2.04
same,relative phosphorylation,"K fixed, at -4",1.97
same,relative phosphorylation,"K fixed, at -5",2.19
same,relative phosphorylation,"L fixed, at +1",0.979
same,relative phosphorylation,"L fixed, at +2",0.781
same,relative phosphorylation,"L fixed, at +3",0.897
same,relative phosphorylation,"L fixed, at +4",0.774
same,relative phosphorylation,"L fixed, at -1",0.835
same,relative phosphorylation,"L fixed, at -2",0.866
same,relative phosphorylation,"L fixed, at -3",0.475
same,relative phosphorylation,"L fixed, at -4",0.647
same,relative phosphorylation,"L fixed, at -5",0.584
same,relative phosphorylation,"M fixed, at +1",1.11
same,relative phosphorylation,"M fixed, at +2",0.961
same,relative phosphorylation,"M fixed, at +3",0.869
same,relative phosphorylation,"M fixed, at +4",0.849
same,relative phosphorylation,"M fixed, at -1",0.903
same,relative phosphorylation,"M fixed, at -2",0.702
same,relative phosphorylation,"M fixed, at -3",0.453
same,relative phosphorylation,"M fixed, at -4",0.77
same,relative phosphorylation,"M fixed, at -5",0.566
same,relative phosphorylation,"N fixed, at +1",1.06
same,relative phosphorylation,"N fixed, at +2",1.51
same,relative phosphorylation,"N fixed, at +3",1.06
same,relative phosphorylation,"N fixed, at +4",1.03
same,relative phosphorylation,"N fixed, at -1",1.59
same,relative phosphorylation,"N fixed, at -2",0.803
same,relative phosphorylation,"N fixed, at -3",0.625
same,relative phosphorylation,"N fixed, at -4",0.938
same,relative phosphorylation,"N fixed, at -5",0.784
same,relative phosphorylation,"P fixed, at +1",0.614
same,relative phosphorylation,"P fixed, at +2",0.914
same,relative phosphorylation,"P fixed, at +3",1.05
same,relative phosphorylation,"P fixed, at +4",1.25
same,relative phosphorylation,"P fixed, at -1",0.931
same,relative phosphorylation,"P fixed, at -2",0.548
same,relative phosphorylation,"P fixed, at -3",0.55
same,relative phosphorylation,"P fixed, at -4",0.937
same,relative phosphorylation,"P fixed, at -5",0.834
same,relative phosphorylation,"Q fixed, at +1",1.13
same,relative phosphorylation,"Q fixed, at +2",1.02
same,relative phosphorylation,"Q fixed, at +3",1.17
same,relative phosphorylation,"Q fixed, at +4",1.1
same,relative phosphorylation,"Q fixed, at -1",1.03
same,relative phosphorylation,"Q fixed, at -2",0.882
same,relative phosphorylation,"Q fixed, at -3",0.731
same,relative phosphorylation,"Q fixed, at -4",1.08
same,relative phosphorylation,"Q fixed, at -5",0.945
same,relative phosphorylation,"R fixed, at +1",0.954
same,relative phosphorylation,"R fixed, at +2",1.52
same,relative phosphorylation,"R fixed, at +3",1.01
same,relative phosphorylation,"R fixed, at +4",0.973
same,relative phosphorylation,"R fixed, at -1",1.44
same,relative phosphorylation,"R fixed, at -2",3.95
same,relative phosphorylation,"R fixed, at -3",6.7
same,relative phosphorylation,"R fixed, at -4",2.31
same,relative phosphorylation,"R fixed, at -5",3.84
same,relative phosphorylation,"V fixed, at +1",1.09
same,relative phosphorylation,"V fixed, at +2",0.88
same,relative phosphorylation,"V fixed, at +3",0.849
same,relative phosphorylation,"V fixed, at +4",0.747
same,relative phosphorylation,"V fixed, at -1",0.855
same,relative phosphorylation,"V fixed, at -2",0.58
same,relative phosphorylation,"V fixed, at -3",0.425
same,relative phosphorylation,"V fixed, at -4",0.794
same,relative phosphorylation,"V fixed, at -5",0.607
same,relative phosphorylation,"W fixed, at +1",0.979
same,relative phosphorylation,"W fixed, at +2",0.776
same,relative phosphorylation,"W fixed, at +3",1.1
same,relative phosphorylation,"W fixed, at +4",1.16
same,relative phosphorylation,"W fixed, at -1",0.774
same,relative phosphorylation,"W fixed, at -2",0.674
same,relative phosphorylation,"W fixed, at -3",0.697
same,relative phosphorylation,"W fixed, at -4",0.828
same,relative phosphorylation,"W fixed, at -5",0.734
same,relative phosphorylation,"Y fixed, at +1",1.15
same,relative phosphorylation,"Y fixed, at +2",0.778
same,relative phosphorylation,"Y fixed, at +3",0.98
same,relative phosphorylation,"Y fixed, at +4",0.952
same,relative phosphorylation,"Y fixed, at -1",1.03
same,relative phosphorylation,"Y fixed, at -2",0.772
same,relative phosphorylation,"Y fixed, at -3",0.573
same,relative phosphorylation,"Y fixed, at -4",0.789
same,relative phosphorylation,"Y fixed, at -5",0.789
same,relative phosphorylation,"pThr fixed, at +1",1.17
same,relative phosphorylation,"pThr fixed, at +2",0.868
same,relative phosphorylation,"pThr fixed, at +3",0.923
same,relative phosphorylation,"pThr fixed, at +4",1.34
same,relative phosphorylation,"pThr fixed, at -1",0.624
same,relative phosphorylation,"pThr fixed, at -2",0.484
same,relative phosphorylation,"pThr fixed, at -3",0.446
same,relative phosphorylation,"pThr fixed, at -4",0.703
same,relative phosphorylation,"pThr fixed, at -5",0.596
same,relative phosphorylation,"pTyr fixed, at +1",1.39
same,relative phosphorylation,"pTyr fixed, at +2",0.96
same,relative phosphorylation,"pTyr fixed, at +3",1.2
same,relative phosphorylation,"pTyr fixed, at +4",1.32
same,relative phosphorylation,"pTyr fixed, at -1",1.8
same,relative phosphorylation,"pTyr fixed, at -2",0.552
same,relative phosphorylation,"pTyr fixed, at -3",0.473
same,relative phosphorylation,"pTyr fixed, at -4",0.767
same,relative phosphorylation,"pTyr fixed, at -5",0.779

# Reference: the supplement of paper PMC9876800
